Assay [1] concerns the target hMPV pre-fusion F protein (A2 strain; A185P, A113C/A339C, RRRR furin site) (human metapneumovirus, A2 strain) (UniProt Q6WB98). Nature of the assay: SEC. Background: Size exclusion chromatography separates by hydrodynamic size, large species first.
Assay [2] has the same target. In words: cryo-EM structure.

Consider “hMPV pre-fusion F protein (A2 strain; A185P, A113C/A339C, RRRR furin site) (from UniProt Q6WB98 19-539) (natural protein)”, for which the stoichiometry N stood at 3 in assay [1] and 2 in assay [2].

The term stoichiometry N denotes the number of molecules, sites or subunits per partner or assembly.

These data come from paper PMC10527986.
